Assay results reported in patent US20150259430A1 (MAB DISCOVERY, published 2015).

B1: Antibody 45 (antibody, V domains shown)
VH: QSVEESGGRLVTPGTPLTLTCTVSGFSLSSYAMTWVRQAPGKGLEWIGIIDHSRATYYANWAKGRFTISKTSSTTVDLKVTSLTTEDTATYFCARFFNPGGSGYLRLWGQGTLVTVSS
VL: DVVMTQTPASVSEPVGGTVTIKCQASQIISNWLAWYQQKPGQPPKLLIYGASILASGVPSRFKASRSGTDYTLTIGDLECADAATYYCQCPDYSDTSLGSFGGGTEVVVR
notes: rabbit IgG in B-cell supernatant
B2: Antibody 9 (antibody, V domains shown)
VH: QEQLEESGEGLVKPGTPLTLTCTASGFSLSSGDMSWVRQAPGKGLEWIGTIGVDGSTDYANWAEGRFTISRTSTTVDLKMTSPTTEDTATYFCARGLFDDYTFNLWGQGTLVTVSS
VL: AYDMTQTPASVEVAVGGTVTIKCQASQNIYTYLSWYQQKPGQPPKLLIYKTSTLASGVPSRFSGSGSGTEYTLTVSGVQCDDAATYYCQQGYTTSSNVATPFGGGTEVVVK
notes: as for B1
B3: Antibody 1 (antibody, V domains shown)
VH: QSLEESGGRLVTPGTPLTLTCTASGFSLSSYAMIWVRQAPGEGLEYIGIIITGGSAYYANWAKGRFTISRTSTTVDLKMTSLTTEDTATYFCARGYSGSSGDLWGQGTLVTVSS
VL: DVVMTQTPASVSEPVGGTVTIKCQASQSISSWLSWYQQKPGQPPKLLIYGASNLASGVSSRFKGSRSGTEYTLTISDLECADAATYYCQCTDYTSKYVGAFGGGTEVLVR
notes: as for B1
B4: Antibody 20 (antibody, V domains shown)
VH: QSLEESGGGLVQPEGSLTLTCTASGLDASSNCWVCWVRQAPGKGLEWIACIYAIGSGVTYYASWVNGRFSISKTSSTTVTLQMTSLTVADTATYLCARVLNGVGYIDLWGPGTLVTVSS
VL: DIVMTQTPSSVEAAVGGTVTIKCQASQSVYNNNWLAWYQQIPGQPPKLLIYESSTLASGVPSRFKGSGSGTQFTLTISDVQCDDAAMYYCQTYYYSSSRTYAFGGGTEVVVK
notes: as for B1
B5: Antibody 78 (antibody, V domains shown)
VH: QSVEESGGRLVTPGTPLTLTCTVSGIDLSSYWMIWVRQAPGEGLEYIGFISNGGGAYYANWTKGRFTISRTSTTVDLKMTSLTTEDTATYFCARAYTTVTIGGFDLWGPGTLVTVSS
VL: AYDMTQTPASVEVAVGGTVTINCQASQNIYNGLAWYQQKPGQPPKLLIYLASTLASGVPSRFKGSGSGTEFTLTISDLECADAATYYCQQGFSVNNVGNVFGGGTEMVVK
notes: as for B1
B6: Antibody 79 (antibody, V domains shown)
VH: QSVEESGGRLVTPGTPLTLTCTVSGFSLSSNAMSWVRQAPGKGLEWIGIINIYGSTNYASWAKGRFTISKTSSTTVDLKITSPTTEDTATYFCARDYGGVSATRLDLWGQGTLVTVSS
VL: DVVMTQTPASVEAAVGGTVTIKCQASQSIGSYLSWYQQKPGQPPKLLIYDASNLEDGVPSRFKGSGSGTEYTLTISDLECADAVTYYCQCTYGYGISSSYGNAFGGGTEVVVK
notes: as for B1
B7: Antibody 74 (antibody, V domains shown)
VH: QSVEESGGRLVTPGTPLTLTCTVSGFSLSSGYMNWVRQAPGKGLEWIGRIHTLSGSIWYASWVKGRFTISKTSTTVDLKMTSLTTKDTATYFCARGNAGGSIEYGMDLWGPGTLVTVSA
VL: AYDMTQTPASVEAAVGGTVTIKCQASESITNYLNWYQQKPGQPPKLLIYSASTLASGVPSRFKGSGSGTQFTLTISGVECADAGTYYCQQGYSLINVGDIFGGGTEVVVR
notes: as for B1
B8: Antibody 88 (antibody, V domains shown)
VH: QSVEESGGRLVTPGTPLTLTCTVSGFPLSSYVMSWVRQAPGTGLEYIGIVGIGGSAYYASWAKGRFTISRTSTTVDLKMTSLTPEDTATYFCARGAGGNFYSPLDLWGQGTLVTVSS
VL: DIVMTQTASPLSGAVGGTVTIKCQASQSISNELAWYQQKPGQRPKLLIYLASTLASGVPSRFKGSGSGTDFTLTISDLECADAATYYCQSYSDTSSISYGYGFGGGTEVVVK
notes: as for B1
B9: Antibody 18 (antibody, V domains shown)
VH: QSVEESGGRLVTPGTPLTLTCTVSGFSLSTYWMSWVRQAPGKGLEYIGFINTGGNAYYASWAKGRFTISKTSTSVDLKITSPTTEDTATYFCAGAYVGDVGDGYALTLWGQGTLVTVSS
VL: DVVMTQTPASVSEPVGGTVTIKCQASQSIGNKLAWYQQVPGQPPKLLIYSASPLASGVSSRFKGSRSGTEYTLTISDLECADAATYYCQCTYYGSSGNAFGGGTEVVVK
notes: as for B1
B10: Antibody 15 (antibody, V domains shown)
VH: QSVEESGGRLVTPGTPLTLTCTVSGFSLNSHAMSWVRQAPGKGLEWIGIISSSGSAWYATWVKGRFTISKTSTTVDLKMTSLTTEDTATYFCARDSAMVPSNFNLWGQGTLVTVSS
VL: AIEMTQSPPSLSASVGETVRIRCLASEFLFNAVSWYQQKPGKPPTLLISGASNLESGVPPRFSGSGSGTDYTLTIGGVQAEDVATYYCLGDFSGGADLTFGAGTKVEIK
notes: as for B1
B11: Antibody 21 (antibody, V domains shown)
VH: QEHLEESGGGLVKPPGSLTLTCTASGFSFSSTYYICWVRQAPGKGLEWIGCIYAGSGTTYYASWAKGRFTISKTSSTTVTLQMASLTAADTATYFCARSSDSWTYGMDLWGPGTLVTVSS
VL: DIVMTQTPASVSEPVGGTVTIKCQASQSISSYLAWYQQKPGQPPKRLIYKASTLASGVPSRFKGSGSGTDFTLTISDLECADAATYYCQCTYGNTGSNFFYGFGGGTEVVVK
notes: as for B1
B12: Antibody 34 (antibody, V domains shown)
VH: QEQLVESGGGLVQPEGSLTLTCKASGFSFSSGYYMCWVRQAPGKGLEWIACIYADSSESTYYASWAKGRFTISKTSSTTVTLQVTSLTAADTATYFCARWGTVAGYSTFNLWGPGTLVTVSS
VL: DVVMTQTPASVSEPVGGTVTIKCQASQSISTALAWYQQKPGQPPKLLIYFTSTLASGVSSRFKGSGSGAEFTLTISDLECADAATYYCQGYYYVTNFPFGGGTEVVVK
notes: as for B1
B13: Antibody 6 (antibody, V domains shown)
VH: QSVEESGGRLVTPGTPLTLTCTVSGFSLSSYTMGWVRQAPGKGLEYIGIINTGGYTYYASWAKGRFTISRTSTTVDLSMTSLTTEDTATYFCARVYPGSSCDLWGQGTLVTVSS
VL: DVVMTQTPASVSEPVGGTVTIKCQASQSISSSYLSWYQQKPGQPPKLLIYRASTLESGVPSRFKGSGSGTEFTLTISDLECADAATYYCQCTDYAGSYVGGAFGGGTEVVVK
notes: as for B1
B14: Antibody 72 (antibody, V domains shown)
VH: QSLEESGGRLVTPGTLLTLTCTASGIDLSGHAMAWVRQAPGKGLEWIGIIYDNGITNYPTWAKGRFTISKTSTTVELKFTSPTTEDTATYFCARDTGNGALRLTLWGPGTLVTVSS
VL: DIVMTQTPSPVSAAVGGTVTIKCQASQSIGSWLSWYQQKPGQRPKLLIYGASTLESGVPSRFKGSGSGTEFTLTISDLECADAATYYCHCTYGSVSGNAFGGGTEVVVK
notes: as for B1

target: T1, recombinant Fc chimeric conjugate of human HER3 (human, UniProt P21860 20-643); experiment: ELISA, coated antigen
T1 construct: extracellular domain; Coated on the ELISA plate
T1 sequence (P21860 20-643, change not shown): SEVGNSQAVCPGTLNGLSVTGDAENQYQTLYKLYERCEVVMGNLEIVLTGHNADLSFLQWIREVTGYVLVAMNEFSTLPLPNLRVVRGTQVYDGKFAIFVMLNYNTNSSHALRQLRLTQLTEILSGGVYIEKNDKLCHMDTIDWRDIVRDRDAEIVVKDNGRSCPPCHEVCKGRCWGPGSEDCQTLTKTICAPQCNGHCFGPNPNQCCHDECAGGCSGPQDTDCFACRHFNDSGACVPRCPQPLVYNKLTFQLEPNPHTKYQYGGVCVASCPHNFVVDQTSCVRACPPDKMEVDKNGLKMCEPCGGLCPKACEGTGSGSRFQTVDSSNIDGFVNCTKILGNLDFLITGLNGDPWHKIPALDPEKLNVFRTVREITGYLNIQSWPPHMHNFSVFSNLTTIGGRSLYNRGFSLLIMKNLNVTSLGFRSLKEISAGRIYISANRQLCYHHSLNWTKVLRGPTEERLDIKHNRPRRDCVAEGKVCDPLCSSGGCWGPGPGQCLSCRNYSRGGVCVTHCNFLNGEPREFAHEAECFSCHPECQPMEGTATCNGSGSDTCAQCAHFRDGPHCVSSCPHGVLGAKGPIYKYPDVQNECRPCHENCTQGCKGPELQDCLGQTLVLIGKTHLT
Description: Microtiter plates were coated with a) c-Met, IGF-1R, EGFR, HER2, and/or HER3 protein or b) EGFR, HER2, and/or HER3 (recombinant Fc chimeric conjugates of human c-Met, IGF-1R, EGFR, HER2, HER3 or IL12 Rβ1). After a blocking process, specific antibodies from B-cell supernatants bind to the targets and are then detected by a POD-labeled anti-rabbit IgG antibody. The IL12R binding was used as a counter-screen.
12.5 μL 0.5 μg/mL protein in PBS was transferred to a microtiter plate incubated and washed 3× with Wash Buffer. 90 μL Block Buffer was added to each well, incubated and washed. 12.5 μL Standard Antibody (Anti-EGF-Receptor; HER2 Rabbit anti-Human Monoclonal (extracellular domain) (SP3) Antibody; HER3 (N-terminal) antibody; start concentration 2 μg/ml; IL-12Rbeta1 antibody start concentration 500 ng/ml) in 1:2 dilutions or sample diluted in ELISA buffer was added, incubated and washed. 12.5 μl 1:5000 POD-Antibody (Anti-rabbit IgG, peroxidase-linked species-specific Fab2 fragment (from donkey) (ECL); assay dilution: 1:5000) in Elisa Buffer was added, incubated and washed. 15 μl TMB was added and 15 μl HCl was added after sufficient development. Absorbance (Optical Density O.D.) was read at 450 nm/620 nm.

| binding result | Binder |
| --- | --- |
| no binding (tested: OD 0.1 or lower) | B1 |
| no binding (tested: OD 0.1 or lower) | B2 |
| no binding (tested: OD 0.1 or lower) | B3 |
| no binding (tested: OD 0.1 or lower) | B4 |
| no binding (tested: OD 0.1 or lower) | B5 |
| no binding (tested: OD 0.1 or lower) | B6 |
| no binding (tested: OD 0.1 or lower) | B7 |
| no binding (tested: OD 0.1 or lower) | B8 |
| no binding (tested: OD 0.1 or lower) | B9 |
| no binding (tested: OD 0.1 or lower) | B10 |
| no binding (tested: OD 0.1 or lower) | B11 |
| no binding (tested: OD 0.1 or lower) | B12 |
| no binding (tested: OD 0.1 or lower) | B13 |
| no binding (tested: OD 0.1 or lower) | B14 |
